{"source": "patent US20030013651A1", "about": "(BARNES JEWISH HOSPITAL, published 2003)", "binders": {"B1": {"name": "GST-RANKL fusion protein (glutathione S-transferase fused N-terminally to murine RANKL residues 158-316) (ligand)", "chain": "KPEAQPFAHLTINAASIPSGSHKVTLSSWYHDRGWAKISNMTLSNGKLRVNQDGFYYLYANICFRHHETSGSVPTDYLQLMVYVVKTSIKIPSSHNLMKGGSTKNWSGNSEFHFYSINVGGFFKLRAGEEISIQVSNPSLLDPDQDATYFGAFKVQDID", "notes": "By size exclusion it is a polydisperse mixture of mono-trimeric (1 n) and oligomeric (2-100 n) units; also called oligomeric GST-RANKL; not shown: vector-encoded linker with protease site between GST and the SalI cloning site"}, "B2": {"name": "cleaved RANKL (murine RANKL residues 158-316 with GST removed by rhinovirus 3C protease) (ligand)", "chain": "B1 chain", "notes": "It migrated as a single trimeric species (1 n) in gel filtration; also called RANKL alone"}}, "biological_target": "T1, RANK (Receptor Activator of NF-kappa B) on primary murine cells (murine, UniProt O35305 31-625)", "T1 construct": "whole, on cells; Endogenous receptor on the cells", "T1 sequence (looked up)": "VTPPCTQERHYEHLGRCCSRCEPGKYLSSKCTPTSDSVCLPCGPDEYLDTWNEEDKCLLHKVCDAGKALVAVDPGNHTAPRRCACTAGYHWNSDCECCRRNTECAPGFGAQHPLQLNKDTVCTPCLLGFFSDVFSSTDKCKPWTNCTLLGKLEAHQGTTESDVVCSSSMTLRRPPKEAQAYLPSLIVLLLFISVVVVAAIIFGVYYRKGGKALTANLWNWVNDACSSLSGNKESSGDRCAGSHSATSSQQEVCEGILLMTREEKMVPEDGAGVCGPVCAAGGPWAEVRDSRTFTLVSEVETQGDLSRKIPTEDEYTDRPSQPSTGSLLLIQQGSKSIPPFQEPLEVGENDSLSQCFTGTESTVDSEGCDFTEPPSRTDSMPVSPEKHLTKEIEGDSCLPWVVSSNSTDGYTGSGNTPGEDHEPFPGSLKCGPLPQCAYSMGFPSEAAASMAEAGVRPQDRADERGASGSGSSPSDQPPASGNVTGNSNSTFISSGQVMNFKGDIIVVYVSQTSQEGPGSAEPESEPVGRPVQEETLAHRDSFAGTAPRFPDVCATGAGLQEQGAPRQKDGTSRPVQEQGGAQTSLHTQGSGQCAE", "experiment": "confocal microscopy of primary murine osteoblasts exposed to 5 nM ligand, RANK stained with anti-RANK antibody", "procedure": "Primary murine osteoblasts were maintained in α-MEM containing 10% fetal bovine serum, and cultured in MEM containing 15% FBS, 50 μM ascorbic acid, and 10 mM β-glycerophosphate for differentiation. Cells were maintained at 37° C. in a humidified atmosphere containing 6% CO₂, with daily replenishment of media and cytokines. Primary murine osteoblasts were cultured on coverslips in A-MEM containing 10% fetal bovine serum and treated with GST-RANKL or cleaved RANKL for the indicated times. For phospholipid membrane staining, cells were incubated for 20 minutes with Vybrant Dil lipophilic carbocyanine membrane fluorescent stain (Molecular Probes). Cells were fixed in 4% paraformaldehyde, permeabilized with 0.1% Triton-X, blocked with 1% BSA/0.2% nonfat dry milk in PBS, and stained for RANK with a polyclonal anti-RANK antibody. Serial optical sections were obtained using a Radiance2100 laser scanning confocal microscope (BioRad). Microscope settings were calibrated to black level values using cells stained with an isotypic Ig control. GST-RANKL was cleaved as described in Example 12.\nPrimary osteoblasts in culture were exposed to 5 nM cleaved RANKL or GST-RANKL. […] Confocal microscopy was employed to localize RANK (green fluorescence) and the cell surface (red fluorescence). On the merged images, colocalization of RANK and the cell surface appears yellow (overlap of green and red fluorescence). […]"}
{"binder": "B1", "values": [{"measurement": "binding result", "result": "binds"}]}
{"binder": "B2", "values": [{"measurement": "binding result", "result": "binds"}]}
